Data on 9 molecules can be found in patent publication US20110118181A1 (INSTITUT DE RECHERHES CLINIQUES DE MONTREAL, published 2011).

The chains are these.
B1: AnxA2 77RRTKK>AATAA (HA-tagged) (other)
chain: MSTVHEILCKLSLEGDHSTPPSAYGSVKAYTNFDAERDALNIETAIKTKGVDEVTIVNILTNRSNAQRQDIAFAYQAATAAELASALKSALSGHLETVILGLLKTPAQYDASELKASMKGLGTDEDSLIEIICSRTNQELQEINRVYKEMYKTDLEKDIISDTSGDFRKLMVALAKGRRAEDGSVIDYELIDQDARDLYDAGVKRKGTDVPKWISIMTERSVPHLQKVFDRYKSYSPYDMLESIRKEVKGDLENAFLNLVQCIQNKPLYFADRLYDSMKGKGTRDKVLIRIMVSRSEVDMLKIRSEFKRKYGKSLYYYIQQDTKGDYQKALLYLCGGDDYPYDVPDYA
notes: also called 77AATAA81
B2: AnxA2 Δ25-36-HA (other)
chain: MSTVHEILCKLSLEGDHSTPPSAYRDALNIETAIKTKGVDEVTIVNILTNRSNAQRQDIAFAYQRRTKKELASALKSALSGHLETVILGLLKTPAQYDASELKASMKGLGTDEDSLIEIICSRTNQELQEINRVYKEMYKTDLEKDIISDTSGDFRKLMVALAKGRRAEDGSVIDYELIDQDARDLYDAGVKRKGTDVPKWISIMTERSVPHLQKVFDRYKSYSPYDMLESIRKEVKGDLENAFLNLVQCIQNKPLYFADRLYDSMKGKGTRDKVLIRIMVSRSEVDMLKIRSEFKRKYGKSLYYYIQQDTKGDYQKALLYLCGGDDYPYDVPDYA
B3: AnxA2 Δ37-48-HA (other)
chain: MSTVHEILCKLSLEGDHSTPPSAYGSVKAYTNFDAEKGVDEVTIVNILTNRSNAQRQDIAFAYQRRTKKELASALKSALSGHLETVILGLLKTPAQYDASELKASMKGLGTDEDSLIEIICSRTNQELQEINRVYKEMYKTDLEKDIISDTSGDFRKLMVALAKGRRAEDGSVIDYELIDQDARDLYDAGVKRKGTDVPKWISIMTERSVPHLQKVFDRYKSYSPYDMLESIRKEVKGDLENAFLNLVQCIQNKPLYFADRLYDSMKGKGTRDKVLIRIMVSRSEVDMLKIRSEFKRKYGKSLYYYIQQDTKGDYQKALLYLCGGDDYPYDVPDYA
B4: AnxA2 77RRTKK>AATAK (HA-tagged) (other)
chain: B1 chain with A81K
notes: also called 77AATAK81
B5: AnxA2 Δ37-66-HA (other)
chain: MSTVHEILCKLSLEGDHSTPPSAYGSVKAYTNFDAEQRQDIAFAYQRRTKKELASALKSALSGHLETVILGLLKTPAQYDASELKASMKGLGTDEDSLIEIICSRTNQELQEINRVYKEMYKTDLEKDIISDTSGDFRKLMVALAKGRRAEDGSVIDYELIDQDARDLYDAGVKRKGTDVPKWISIMTERSVPHLQKVFDRYKSYSPYDMLESIRKEVKGDLENAFLNLVQCIQNKPLYFADRLYDSMKGKGTRDKVLIRIMVSRSEVDMLKIRSEFKRKYGKSLYYYIQQDTKGDYQKALLYLCGGDDYPYDVPDYA
B6: AnxA2 Δ49-61-HA (other)
chain: MSTVHEILCKLSLEGDHSTPPSAYGSVKAYTNFDAERDALNIETAIKTNRSNAQRQDIAFAYQRRTKKELASALKSALSGHLETVILGLLKTPAQYDASELKASMKGLGTDEDSLIEIICSRTNQELQEINRVYKEMYKTDLEKDIISDTSGDFRKLMVALAKGRRAEDGSVIDYELIDQDARDLYDAGVKRKGTDVPKWISIMTERSVPHLQKVFDRYKSYSPYDMLESIRKEVKGDLENAFLNLVQCIQNKPLYFADRLYDSMKGKGTRDKVLIRIMVSRSEVDMLKIRSEFKRKYGKSLYYYIQQDTKGDYQKALLYLCGGDDYPYDVPDYA
B7: AnxA2 77…>77AATAAELASALA (HA-tagged) (other)
chain: B1 chain with K88A
B8: AnxA2 80KKELA>GKPLD (HA-tagged) (other)
chain: B1 chain with A77R, A78R, A80G, A81K, E82P, A84D
notes: also called 80KKELA84 replaced with AnxA1 loop 89GKPLD93
B9: AnxA2 K28S+D34N+E36S (HA-tagged) (other)
chain: B1 chain with K28S, D34N, E36S, A77R, A78R, A80K, A81K

Residue numbers refer to the chain shown, from its start. Names and notes keep the numbering of the source.

T1 sequence (Q8NBP7 31-692 limits assumed): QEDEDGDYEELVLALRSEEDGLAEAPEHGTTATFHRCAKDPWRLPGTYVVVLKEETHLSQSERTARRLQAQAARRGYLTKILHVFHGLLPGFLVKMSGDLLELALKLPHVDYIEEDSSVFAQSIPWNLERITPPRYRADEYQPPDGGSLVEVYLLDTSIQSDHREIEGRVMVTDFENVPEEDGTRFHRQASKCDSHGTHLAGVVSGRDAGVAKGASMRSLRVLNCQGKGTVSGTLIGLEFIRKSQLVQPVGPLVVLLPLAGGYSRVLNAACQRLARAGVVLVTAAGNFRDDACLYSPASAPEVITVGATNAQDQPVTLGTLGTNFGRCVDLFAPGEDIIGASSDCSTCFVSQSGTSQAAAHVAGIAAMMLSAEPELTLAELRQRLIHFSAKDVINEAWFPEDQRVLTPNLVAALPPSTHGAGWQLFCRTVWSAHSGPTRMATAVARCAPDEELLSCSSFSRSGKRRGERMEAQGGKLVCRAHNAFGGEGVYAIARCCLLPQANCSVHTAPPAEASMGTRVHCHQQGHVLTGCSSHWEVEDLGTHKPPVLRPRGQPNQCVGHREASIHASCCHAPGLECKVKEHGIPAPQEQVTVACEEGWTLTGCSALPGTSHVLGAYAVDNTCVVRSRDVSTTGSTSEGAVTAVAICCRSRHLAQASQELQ

The experiment has as its target T1, PCSK9-V5 (full-length human PCSK9 with C-terminal V5 tag) (human, UniProt Q8NBP7 31-692).
T1 construct: Used as conditioned medium of CHO-K1 cells (Far Western, pull-down) or co-expressed in cells (co-IP); The background says PCSK9 is secreted as a prosegment-PCSK9 heterodimer; also called full-length (FL) PCSK9-V5; native PCSK9; not shown: C-terminal V5 tag
The experiment can be described thus: Far Western blot of HEK293 lysates.
Turning to B1, the binding result was “no binding”.

As to B2, the binding result is reported as “no binding”.

Consider B3, for which the binding result is given as “no binding”.

For the molecule B4, the binding result is “no binding”.

Turning to B5, the binding result is reported as “no binding”.

For B6, the binding result is reported as “no binding”.

With B7, the binding result is reported as “no binding”.

For the molecule B8, the binding result was “binds”.

As to B9, the binding result was “binds”.
